Data reported in paper doi:10.1101/2024.05.23.595586.
pKd: −log10 of the molar value.

Target: TREM2 (a.a. 19-134), biotinylated, WT (human) (UniProt Q9NZC2)
Experiment: BLI

TREM2 (a.a. 19-134), biotinylated, WT (human), sequence (Q9NZC2 19-134): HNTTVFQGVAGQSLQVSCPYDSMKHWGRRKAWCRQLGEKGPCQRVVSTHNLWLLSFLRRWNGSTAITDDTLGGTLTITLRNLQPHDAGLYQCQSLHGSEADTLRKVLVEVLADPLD

pKd: 7.37
Substance: oligomeric amyloid beta 42 (oAβ42) WT (peptide)
